B1: HA-dCENP-C(1264-1411) [Drosophila melanogaster] / CAL1-GFP-LacI [Drosophila melanogaster] (parent)
chain 1: GPVVFSTPLRDEQEEASTKLMQWLRGVGDAPPSASMSDENASVSSANELIFCQVDGIDYAFYNTKEKAMLGYMRFKPYQKRSMKQAKVHPLKLLVQFGEFNVETLAVGEEKEVHSVLRVGDMIEIDRGTRYSIQNAIDKVSVLMCIRS
chain 2: MANAVVDEETLEAMVYERSKAWSSKMADFASLEDGMEIDVAEFDNLFHGEDEDPDLDDVAKEAVEDNVPDEAKLEMGHINATSVTELTLILCANEDNEAKAEIEEILNQTVPVVEEHKRKWREAGLDRILDTFDEKQIEHHVGRWMRRHNSVYLEASPPKYLPPHHNSISDESDESMHSIDTARYIQQSRRRNAHMTNKNMTTIKMYRKHSHKRDELRAKYAYGDEQEHRHHMQAVLLRRRERERQLAYLASTPMQCVYSSGHHMRRKNLRKRRINSWMFDSASSSEEDTSFGGCDCHSCRRHYALSRSVYQSCPYGRGQREYHHRQMASRTMHTMRRQHTFDMEMDLRPRLPENECSCCNSDRLCSNVIHIANSSTEEWVVENRSNHLTQETQEKTRKQKHQPMDARKVSHQPVCSKGHEQKPLSSKATSVSKLVLSKEKYMQMFDSESSDEDNALAKKGLLCCSDKKKGMTFPTPNAAGKITHPTSSAKKAIRKEARPNGLAQIQEEGPTATNSPIESTYLPVAHMKSVSIDGSSGTSATFESPAKKAPKRGIRETSPLNGNELQQLISTIPIADEKASSLMEKVDNCIGRESFDDRNKDFMHMENSSTKTAVEKSTKQKRVSGKKSEIPKSIITNNEILEKNSTETLSEKQVAAKAKKQSVRKTGATGKPSTSRLKKSEKTKTTSSVTSTSKLEQVREEESDVSSEVLAKPKPQCSTTASILKQGGDGASNSEDDLQIALAMSKATYKEEQQKRKKTKREPSNKQPQSPAEKSMTVFNNQSVACNSTALANDTACYRVLPKRRGVKRAAAVSTTEEKTATNSSSSPTSSLEEMGSPTGGDPDCTVVTSTTGCEPPASERQEIPATIKITKRGILLHSPSAPEGASFTLTEQGLGKIIGERWARKYLKYHIGSRSFDSRHSVYYQPTPQLAAALSAPQDAQNIGNISGSSASDDDIFEQINRYGTVYSILENNSGDK
B2: HA-dCENP-C(1264-1411) [Drosophila melanogaster] / GFP-LacI-dCENP-C [Drosophila melanogaster] (parent)
chain 1: B1 chain 1
chain 2: MSKPQNNDTLELDDILSQPVKDKERFAAFMMRKLAENKPAQNDNLFGNFKLDFDLDFEVPLIKKSQAKPKSKLPEVQPLGELVSKNSAATEKVNEPPVDQAPNENVPPRRSPTLSPNNRRSMRRSGNVPGSDKLRRHAIRRRSRSCGRQLLPEFEETVNLTRSISSPVNFLPEISSTPCTEKQKEEVAKNTTRVETDKPAEKPMELSQEPEPENPLQTKVTSPARNPILAAEIEQICKERQSSFHKNVLQLDYSGRAPYSRPPTPSSPSVAGLRRTYTMEKGPAPGQLLLSPSHRYDTPSKMPVVKAKRFNQELMVPDTPERQSHDPAWQSEPQPEFVVPETQPQDLGELVQTLSRSAISPIVVINTSNSNRSVRRDAVAMKSVPTSPVTALSSPPIAPSPRRSAAASPQKSIAQLPRVEENMDAIMTDDESDEHPSTVPLNLAPSGGNTTRQRRLRSSNRARATIESQESSMRLLNLHKSVNAKKSKPRKTAIPLNKAPSAPINGEQFARELTRMSNYEILDLRKRNSLNEIYPLNGHRNHRSEKLILEEEIQRELLRRNLMDEAEGLPKQQSSDDSNEDYIPVPPKTQSLRTKSNDRSQGRGRPRSTRRDLPMTTELVNYLGLSQTLETRRKSSKDGKRCLYTKGSSDHEDNDSLSPVKLPRLSKSIQIVPPPPVSLRYSQSLQNLPCSGKFDFDNVVMAAPPDFHDSVNSDAIEIAPPPPEYVVNTRGRSTSGRKSNKNDLVLPPPGYEGGQEEEHDERPSQPRCTAKELQQSTQNGRRAMENELVPPPIEYVEEENRNNEQSRRSTKNGNLVDRNTHNAVEYCEPPEPPEYDDSDHGQASILRRSGKKLQHSKQSVQKSNKEQIIAPSYENNEDYDSDEEPIYNEEYGKEESQNKNVTRRKSDKDEMASHTLECIEGPDPNWNSSCNKQNRNHQNASKSKENDKLANRSSKSQKLSNPRQNAVGTEKSVALSNRGEECTEKSSDVMESLRVNTPTPPIDQNSDDVPSRNPSPSRTLLSDDVPSTSRAALEFLQRSQNMSKSRPPDESSADVVFKKPLAPAPRAKSKKGKSEVDKLKLAKMPVEAEELNTTGIRRSKRGQVPLQMSWCHTMDPSKFNFMSGFIEPRSKNSKTKKGNLSKAKKASATKPKPTVEKNLPDNRGPLCSSTPRISEKLPGAIPHSESLGLSTLTWEETEVQAEAEKVPKKRGRPKKAVGGVQTDTEAEPEPEPEPMISSVAPLTSDQEEPDVPDEQAPYTEAALGPVVFSTPLRDEQEEASTKLMQWLRGVGDAPPSASMSDENASVSSANELIFCQVDGIDYAFYNTKEKAMLGYMRFKPYQKRSMKQAKVHPLKLLVQFGEFNVETLAVGEEKEVHSVLRVGDMIEIDRGTRYSIQNAIDKVSVLMCIRS

One experiment covers variants of B1. The experiment can be described thus: LacO-tethering recruitment assay (HA immunofluorescence intensity at LacO). The settings on record: with CAL1-GFP-LacI [Drosophila melanogaster]; parent: 0.68; read off a plot.
On to chain 1 GPVVFSTPLRDEQEEASTKLMQWLRGVGDAPPSASMSDENASVSSANELIFCQVDGIDYAFYNTKEKAMLGYMRFKPYQKRSMKQAKVHPLKLEVQFGEFNVETLAVGEEKEVHSVLRVGDMIEIDRGTRYSIQNAIDKVSVEMCIRS, for which the response (normalized to GFP) turned out to be 0.12.

The variants in the next experiment derive from B2. Described as above. The settings on record: with GFP-LacI-dCENP-C [Drosophila melanogaster]; parent: 1.6; read off a plot.
Consider chain 1 GPVVFSTPLRDEQEEASTKLMQWLRGVGDAPPSASMSDENASVSSANELIFCQVDGIDYAFYNTKEKAMLGYMRFKPYQKRSMKQAKVHPLKLEVQFGEFNVETLAVGEEKEVHSVLRVGDMIEIDRGTRYSIQNAIDKVSVEMCIRS, for which the response (normalized to GFP) is -0.05.

The record behind these values is article PMC6900781.
